molecular target: retromer cargo-selective complex (CSC), trimer of VPS35, VPS29 and VPS26 (UniProt Q96QK1); experiment: ITC

Q: With “FN fragment of FAM21 (356-600) as used in ITC (domain or fragment)” as the substance, how does the Kd read?
A: Its Kd is 11.5 µM.

Q: And the stoichiometry N?
A: The stoichiometry N was 0.32.

Q: For “R20-21 for ITC (FAM21 1278-1341, Trp, His6) (domain or fragment)”, which Kd is on record?
A: Its Kd is 2.5 to 16.6 µM.

Q: And the Kd of the second site (two-site model, one site fixed to 16.6 μM)?
A: The Kd of the second site (two-site model, one site fixed to 16.6 μM) was 3 µM.

Q: And the stoichiometry N?
A: Its stoichiometry N is 0.49.

Q: “R19-20 for ITC (FAM21 1250-1317, Trp, His6) (domain or fragment)” was tested. Which Kd did it give?
A: Its Kd is 6.8 µM.

Q: And the stoichiometry N?
A: Its stoichiometry N is 0.39.

Q: Which results are given for “R21 for ITC (FAM21 1309-1341, Trp, His6) (domain or fragment)”?
A: Kd: 16.6 µM; stoichiometry N: 0.82

Q: Which Kd does the source give for “FC fragment of FAM21 (938-1341 without 1029-1047) as used in ITC (domain or fragment)” here?
A: Its Kd is 2.4 µM.

Q: What about the stoichiometry N of the same substance?
A: Its stoichiometry N is 0.42.

molecular target: retromer cargo-selective complex (CSC), trimer of VPS35, VPS29 and VPS26 (UniProt Q96QK1); experiment: ITC; remark: another data set of the same source

Q: With “R20-21 for ITC (FAM21 1278-1341, Trp, His6) (domain or fragment)” as the substance, how does the Kd read?
A: Its Kd is 3.2 µM.
